From patent US20100143379A1 (priority 2005, published 2010)

Columns and labels:
Assay type in all cases: cell-based
[1] = test system: murine bone marrow progenitor cultures; assay: BFU-E and CFU-E erythropoietin-dependent progenitor colony assays; settings: 10-100 ng/ml MIF, 1-20 ng/ml TNFα, or 10-100 U/ml IFNγ
Experimental: Bone marrow cells were harvested, plated in a methylcellulose-based medium, and colony numbers scored after the addition of murine cytokines. Individual assays were performed in duplicate, and the data shown is a compilation of 3-6 independently performed experiments. % inhibition of colony formation is calculated with reference to a cytokine-minus control. All values shown are the mean±SD and are significant when compared to wells with no cytokine addition (P<0.05). CFU-E: colony forming unit—erythroid; BFU-E: burst-forming unit—erythroid.
The two inflammatory cytokines, TNFα and IFNγ, were also studied. TNFα and IFNγ are produced as a consequence of macrophage and T cell activation (McDevitt et al. 2004. Curr Hematol Rep 3:97-106). The appearance of BFU-E and CFU-E were quantified after culture with these cytokines, applied either alone or in combination.
BFU-E and CFU-E Progenitor Cell Assays. The progenitor cell (colony) assays were performed according to the standardized methods described previously (Martiney et al. 2000. Infection and Immunity 68:2259-2267) and protocols from StemCell Technologies (Vancouver; BC, Canada). Briefly, washed murine bone marrow cells were plated in sterile 35-mm dishes containing a methylcellulose-based medium and growth factors. The total number of bone marrow cells plated in duplicate culture dishes were as follows: 2×10^5 for CFU-E and 5×10^5 for BFU-E. MethoCult™ M3334 was utilized for the CFU-E and BFU-E colony assays. The media for CFU-E and BFU-E was volume adjusted by adding 1 part Isocove's MDM to 9 parts MethoCult™ M3334 to give final concentrations of the following components: 15% fetal bovine serum, 1% BSA, […] transferrin, […] insulin, 1% methylcellulose, 10^−4 M 2-mercaptoethanol, 2 mM L-glutamine and 3 units/ml erythropoietin. Each assay of different bone marrow progenitor cells was performed independently 3-6 times.

[2] = test system: Friend murine erythroleukemia (MEL) cell line; assay: MEL cell cytodifferentiation and hemoglobin content
Experimental: The specificity of this effect was verified by the application of a neutralizing, anti-MIF mAb.
Erythroid Progenitor Cell Lines. The Friend murine erythroleukemia (MEL) cell line was cultured in Dulbecco's modified Eagle's medium supplemented with 10% FBS. Differentiation was induced with dimethyl sulfoxide differentiation medium for 4 days as described (Terada et al. 1977. Proc. Natl. Acad. Sci. USA 74:248-252). Hemoglobin synthesis was assessed by cyto-centrifugation onto glass slides followed by staining with benzidine (Worthington), and by the hemoglobin kit from Sigma.

[3] = test system: HIV-1ADA; assay: HIV-1 replication in monocyte-derived macrophage cultures (RT activity); settings: recombinant MIF 50 ng/ml
Experimental: (§1) Triplicate cultures of monocyte-derived macrophages were infected with HIV-1ADA in the presence of anti-MIF MAb (25 μg/ml) or isotype control. Virus replication was monitored by RT activity in culture supernatants. Results are presented as mean±SD. […] Control cultures were cultivated with PMB mixed with an isotype immunoglobulin with or without MIF.
as §1, with “To investigate this possibility, HIV-infected macrophages were cultured in the presence of a neutralizing anti-MIF antibody or isotype control. Triplicate” for “Triplicate”, “supernatants.” for “supernatants. Results are presented as mean±SD.”

[4] = test system: R5 (ADA) strain of HIV-1; assay: HIV-1 replication in PHA-activated PBMC cultures (RT activity); settings: 50 ng/ml; p<0.01
Experimental: (§2) At indicated time points after infection, reverse transcriptase activity was measured in culture supernatants. Results are mean±SD. Whereas differences between MIF-treated and control cultures of ADA-infected PBMCs are highly statistically significant (p<0.01), differences between MIF-treated and control cultures of LAI-infected cells are not significant (p>0.05).
as §2, with “supernatants.” for “supernatants. Results are mean±SD.”, “(p>0.05) (FIG. 8).” for “(p>0.05).”

[5] = test system: X4 (LAI) strain of HIV-1; assay: as above; settings: 50 ng/ml; p>0.05
Experimental: as §2
as §2, with “supernatants.” for “supernatants. Results are mean±SD.”, “(p>0.05) (FIG. 8).” for “(p>0.05).”

[6] = test system: CCR5; assay: Cell surface receptor expression in monocyte-derived macrophages (FACS); settings: 50 ng/ml with PMB 10 μg/ml, 48 h
Experimental: (§3) Cell surface expression of CCR5 and CXCR4 was analyzed by FACS after staining with FITC-conjugated anti-CCR5 and PE-conjugated anti-CXCR4 antibodies (Pharmingen). Results (percent of receptor-positive cells) are shown as mean±SE for three performed experiments.
(§4) Cell surface expression of CCR5 and CXCR4 was analyzed by FACS after staining with FITC-conjugated anti-CCR5 and PE-conjugated anti-CXCR4 antibodies (Pharmingen) (FIG. 9).

[7] = test system: CXCR4; assay: as above; settings: 50 ng/ml with PMB 10 μg/ml, 48 h
Experimental: as §3, §4

[8] = test system: p53; assay: Cytoplasmic Ser15-phosphorylated p53 content, COS-7 cells; settings: during apoptosis induction
Experimental: Apoptosis Studies. […] Cell lysates were collected, and caspase-3 activity analyzed using a colorimetric assay kit (R&D Systems). Cytoplasmic p53 content was analyzed as described previously (Mitchell et al. (2002). Proc Natl Acad Sci USA 99:345-350) by immunoblotting of mouse cytosolic fractions using a pair of anti-phospho-p53 (Ser15) (R&D Systems) and total anti-p53 antibodies (Cell Signaling); and for COS-7 cells, the anti-p53 (Ser15) and total anti-p53 antibodies (Cell Signaling). In vivo apoptosis studies followed the procedures of (Mitchell et al. (2002). Proc Natl Acad Sci USA 99:345-350), and were conducted after i.p injection of 15 mg/kg lipopolysaccharide (E. coli 0111:B4; Sigma). Mice were sacrificed 24 hrs after priming and the peritoneal macrophage cells collected and immediately analyzed for apoptosis by an ELISA that detects cytoplasmic oligonucleosomes (Roche Diagnostics). Primary macrophages also were immunostained by Alexa 488-conjugated, Annexin V (Invitrogen), and apoptotic cells enumerated by fluorescence microscopy.

B1: MIF: macrophage migration inhibitory factor; recombinant mouse or human MIF purified essentially free of endotoxin (protein)
chain: PMFIVNTNVPRASVPDGFLSELTQQLAQATGKPPQYIAVHVVPDQLMAFGGSSEPCALCSLHSIGKIGGAQNRSYSKLLCGLLAERLRISPDRVYINYYDMNAANVGWNNSTFA
BFU-E and CFU-E colony formation [1]: dose-dependently inhibited | reduction of hemoglobin content ([2]; 20 ng/ml): 12% | reduction of hemoglobin content ([2]; 100 ng/ml): 20% | cytodifferentiation response (benzidine staining) ([2]; 200 ng/ml): decreased the cytodifferentiation response | HIV-1 replication (RT activity) [3]: significantly suppressed replication | R5 HIV-1 replication (RT activity) [4]: reduced R5 HIV-1 replication | X4 HIV-1 replication (RT activity) [5]: did not reduce replication | CCR5 expression [6]: substantially reduces CCR5 expression | CXCR4 expression [7]: without altering expression of CXCR4 | intracytoplasmic content of Ser15-phosphorylated p53 [8]: reduction in the intracytoplasmic content
